Test results as given in patent US20240189439A1.

What follows are binders tested against human PMEL17 (human) (UniProt P40967) (assay: FACS titration of IgG on G-361 cells (human melanoma), Alexa Fluor detection antibody).
human PMEL17 (human), sequence (P40967 25-661): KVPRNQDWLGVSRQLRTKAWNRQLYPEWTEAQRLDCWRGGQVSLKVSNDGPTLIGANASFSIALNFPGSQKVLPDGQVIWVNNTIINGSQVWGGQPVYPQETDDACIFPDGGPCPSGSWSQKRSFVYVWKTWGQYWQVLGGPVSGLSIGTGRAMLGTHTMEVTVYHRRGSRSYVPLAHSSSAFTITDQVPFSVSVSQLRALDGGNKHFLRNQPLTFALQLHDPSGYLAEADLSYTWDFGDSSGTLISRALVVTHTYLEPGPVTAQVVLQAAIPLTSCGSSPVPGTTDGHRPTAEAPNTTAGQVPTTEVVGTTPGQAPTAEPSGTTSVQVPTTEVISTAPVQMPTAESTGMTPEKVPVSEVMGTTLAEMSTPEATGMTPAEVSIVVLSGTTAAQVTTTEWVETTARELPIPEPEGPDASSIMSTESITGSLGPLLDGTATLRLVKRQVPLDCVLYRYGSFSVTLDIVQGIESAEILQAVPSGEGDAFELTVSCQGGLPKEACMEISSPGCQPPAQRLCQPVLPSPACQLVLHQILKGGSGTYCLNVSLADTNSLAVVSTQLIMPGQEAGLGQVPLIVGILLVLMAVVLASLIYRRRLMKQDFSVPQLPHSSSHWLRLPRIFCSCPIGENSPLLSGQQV

EC50 [nM]	Binder
1.7	MOR024354 (antibody, V domains shown) VH: QVQLLESGGGLVQPGGSLRLSCAASGFTFSSFGMSWVRQAPGKGLEWVSAISYSGSDTYYADSVKGRFTISRDNSKNTLYLQMNSLRAEDTAVYYCARDVGVMDYWGQGTLVTVSS VL: SYELTQPLSVSVALGQTARITCSGDNLGTYYAHWYQQKPGQAPVLVIYSQSHRPSGIPERFSGSNSGNTATLTISRAQAGDEADYYCGAWDAPSPELVFGGGTKLTVL
3.2	Y010903 (antibody, V domains shown) VH: EVQLVESGGGLVKPGGSLRLSCAASGFTFSNAWMSWVRQAPGKGLEWVGRIKSKTDAGTTDYAAPVKGRFTISRDDSKNTLYLQMNSLKTEDTAVYYCARASHRLHSLFDVWGQGTLVTVSS VL: DIQMTQSPSTLSASVGDRVTITCRASQSISSWLAWYQQKPGKAPKLLIYDASSLESGVPSRFSGSGSGTEFTLTISSLQPEDFATYYCQQGLFYPHTFGQGTKVEIK
1.3	Y010900 (antibody, V domains shown) VH: EVQLVESGGGLVKPGGSLRLSCAASGFTFSNAWMSWVRQAPGKGLEWVGRIKSKTDAGTTDYAAPVKGRFTISRDDSKNTLYLQMNSLKTEDTAVYYCARTIYPSAPSSSLDYWGQGTLVTVSS VL: DIQMTQSPSSLSASVGDRVTITCRASQGISNYLAWYQQKPGKVPKLLIYAASTLQSGVPSRFSGSGSGTDFTLTISSLQPEDVATYYCQQLIFFPLTFGQGTKVEIK
2	Y010906 (antibody, V domains shown) VH: EVQLVESGGGLVKPGGSLRLSCAASGFTFSNAWMSWVRQAPGKGLEWVGRIKSKTDAGTTDYAAPVKGRFTISRDDSKNTLYLQMNSLKTEDTAVYYCARDEYPWGWFDVWGQGTLVTVSS VL: DIQMTQSPSSVSASVGDRVTITCRASQGISSWLAWYQQKPGKAPKLLIYAASSLQSGVPSRFSGSGSGTDFTLTISSLQPEDFATYYCQQYIFYPLTFGQGTKVEIK
10	Y010910 (antibody, V domains shown) VH: EVQLVESGGGLVKPGGSLRLSCAASGFTFSNAWMSWVRQAPGKGLEWVGRIKSKTDAGTTDYAAPVKGRFTISRDDSKNTLYLQMNSLKTEDTAVYYCARVASPSAPGGFDYWGQGTLVTVSS VL: DIQMTQSPSSLSASVGDRVTITCRASQGISNYLAWYQQKPGKVPKLLIYAASTLQSGVPSRFSGSGSGTDFTLTISSLQPEDVATYYCQQSLFAPFTFGQGTKVEIK

Each binder was assayed against human PMEL17 (human) (UniProt P40967) (assay: FACS titration of IgG on G-361 cells (human melanoma), PE detection antibody).

EC50 [nM]	Binder
0.5	Y010355 (antibody, V domains shown) VH: EVQLVESGGGLVKPGGSLRLSCAASGFTFSNYWISWVRQAPGKGLEWVGRIKSKTYGGTTDYAEPVKGRFTISRDDSKNTLYLQMNSLKTEDTAVYYCARTSRRSYAFDYWGQGTLVTVSS VL: DIQMTQSPSTLSASVGDRVTITCRASQSISSWLAWYQQKPGKAPKLLIYDASSLESGVPSRFSGSGSGTEFTLTISSLQPEDFATYYCQQITRYPVTFGQGTKVEIK
2.8	Y010417 (antibody, V domains shown) VH: EVQLVQSGAEVKKPGESLKISCKGSGYSFTSYWIGWVRQMPGKGLEWMGIIYPGDSDTRYSPSFQGQVTISADKSISTAYLQWSSLKASDTAMYYCARGSSAASGLSGDLWGQGTLVTVSS VL: DIQMTQSPSSLSASVGDRVTITCRASQSISSYLNWYQQKPGKAPKLLIYAASSLQSGVPSRFSGSGSGTDFTLTISSLQPEDFATYYCQQDYYSPFTFGQGTKVEIK
1.6	Y010356 (antibody, V domains shown) VH: EVQLVESGGGLVKPGGSLRLSCAASGFTFSNYWISWVRQAPGKGLEWVGRIKSKTYGGTTDYAEPVKGRFTISRDDSKNTLYLQMNSLKTEDTAVYYCARVSGYYSHSGGFDVWGQGTLVTVSS VL: DIQMTQSPSSLSASVGDRVTITCRASQGISNYLAWYQQKPGKVPKLLIYAASTLQSGVPSRFSGSGSGTDFTLTISSLQPEDVATYYCQKTWRTPGTFGQGTKVEIK
